Source: the supplement of paper PMC10126150
± gives the standard deviation of the averaged measurements.

Tested on: ATP
Assay: switch fluorescence ratio, 500 uM ATP over buffer (Cy3 cluster intensity, sum of 5 cycles each) (fold (ratio)); higher = stronger signal-on switching upon ATP binding; sequences stand for … in TCGTCGGCAGCGTCAGATGTGTATAAGAGACAGTTTTTTTTTTTTTTTTTTTTTTTTT…TC
Details: aptamer strand: ATP DNA aptamer (quencher-CACCTGGGGGAGTATTGCGGAGGAAGG + anchor), 100 nM annealed; ATP concentration: 500 uM
Summary of the method: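 The quencher-labelled ATP aptamer, at 100 nM, was annealed to Cy3-labelled switching-strand clusters on a modified Illumina MiSeq flow-cell. The clusters were imaged in selection buffer, then after 15 min with 500 uM ATP at 22 °C, and this buffer/ATP cycle ran five times with NaOH stripping and re-annealing between runs. Per-cluster fluorescence ratios, summed target-cycle over summed buffer-cycle Cy3 intensity, were averaged per switch-domain sequence. Clusters outside 100-1000 RFU were excluded.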
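Also: ATP exposure 15 min at 22 °C before imaging.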

Row | Sequence | switch fluorescence ratio
1 | CTTTTAGTTA | 1.01 ± 0.015
2 | CTTTTATTTT | 1.03 ± 0.012
3 | CTTTTCATTG | 1.06 ± 0.089
4 | CTTTTCGGCT | 1.04 ± 0.028
5 | CTTTTCGGGT | 0.964 ± 0.033
6 | CTTTTCTTGG | 0.991 ± 0.03
7 | CTTTTGACTG | 1.05 ± 0.043
8 | CTTTTGGGAC | 0.987 ± 0.025
9 | CTTTTTAATG | 0.98 ± 0.028
10 | CTTTTTAGGT | 0.998 ± 0.012
11 | CTTTTTTATT | 1.01 ± 0.0085
12 | CTTTTTTGGT | 1.03 ± 0.015
13 | CTTTTTTTAG | 1.0383 ± 0.001
14 | CTTTTTTTGT | 0.995 ± 0.025
15 | GAAAAAAGGG | 1.11 ± 0.11
16 | GAAAAAATCC | 1.29 ± 0.34
17 | GAAAAAGCCG | 1.014 ± 0.0078
18 | GAAAAAGGAA | 1.024 ± 0.0041
19 | GAAAAAGGGG | 1.01 ± 0.019
20 | GAAAAATTGG | 1.03 ± 0.03
21 | GAAAACGGGG | 1.01 ± 0.02
22 | GAAAAGGTTC | 1.04 ± 0.044
23 | GAAAATGCAT | 0.99 ± 0.013
24 | GAAAATGTCG | 0.988 ± 0.07
25 | GAAAATGTTG | 0.991 ± 0.033

Row | Sequence | switch fluorescence ratio
26 | GAAACAATTG | 0.9897 ± 0.0075
27 | GAAACAGGCA | 0.963 ± 0.017
28 | GAAACAGGGA | 1.06 ± 0.057
29 | GAAACATACG | 1.33 ± 0.026
30 | GAAAGATAAG | 0.985 ± 0.014
31 | GAAAGCGCGT | 0.965 ± 0.028
32 | GAAAGGAGGG | 1.03 ± 0.065
33 | GAAAGGATTA | 0.995 ± 0.063
34 | GAAAGGGATT | 1 ± 0.048
35 | GAAAGGGGTA | 1.01 ± 0.046
36 | GAAAGGGTTG | 0.968 ± 0.035
37 | GAAAGTGTGG | 0.971 ± 0.03
38 | GAAAGTGTTG | 0.9722 ± 0.0058
39 | GAAAGTTCGC | 1.02 ± 0.038
40 | GAAATACAAC | 1.04 ± 0.028
41 | GAAATACGCT | 1.08 ± 0.022
42 | GAAATATCAG | 1.01 ± 0.029
43 | GAAATATGTT | 0.999 ± 0.014
44 | GAAATATTAG | 1.02 ± 0.032
45 | GAAATGGTAG | 0.99 ± 0.025
46 | GAAATGTGGT | 0.997 ± 0.02
47 | GAAATGTTAG | 0.966 ± 0.025
48 | GAAATGTTGG | 0.981 ± 0.024
49 | GAAATTAACT | 1.01 ± 0.033
50 | GAAATTGACC | 1.02 ± 0.038

Row | Sequence | switch fluorescence ratio
51 | GAACATGCAG | 1.01 ± 0.03
52 | GAACCAGTAC | 1.82 ± 0.032
53 | GAACCAGTGC | 1.23 ± 0.083
54 | GAACCTGGAT | 1.16 ± 0.038
55 | GAACCTTCGT | 1.05 ± 0.096
56 | GAACGAACGG | 1.08 ± 0.06
57 | GAACGAAGCA | 1.84 ± 0.051
58 | GAACGAGGGG | 1.01 ± 0.019
59 | GAACGAGGGT | 0.9676 ± 0.0013
60 | GAACGATACA | 1.334 ± 0.012
61 | GAACGGAGCT | 1.09 ± 0.052
62 | GAACGGAGGC | 0.978 ± 0.016
63 | GAACGGTGTG | 0.996 ± 0.0057
64 | GAACGTACAA | 1.587 ± 0.015
65 | GAACGTGGAG | 0.999 ± 0.02
66 | GAACTAAGCT | 1.01 ± 0.028
67 | GAACTAGGTG | 1.444 ± 0.0058
68 | GAACTCGGCG | 1.02 ± 0.031
69 | GAACTCGGTC | 0.994 ± 0.01
70 | GAACTTAGAT | 1.01 ± 0.04
71 | GAAGAATCTG | 1.03 ± 0.016
72 | GAAGAATTGT | 0.991 ± 0.038
73 | GAAGACCGGT | 0.985 ± 0.047
74 | GAAGACTACG | 1.04 ± 0.038
75 | GAAGAGCCTA | 0.986 ± 0.044

Row | Sequence | switch fluorescence ratio
76 | GAAGATTGGG | 0.998 ± 0.053
77 | GAAGCAGGGG | 2.26 ± 0.74
78 | GAAGCATAAT | 1.27 ± 0.12
79 | GAAGCCGGAC | 1.12 ± 0.035
80 | GAAGCGCCGG | 1.01 ± 0.028
81 | GAAGCGGATG | 1.01 ± 0.031
82 | GAAGCTAGTA | 1.02 ± 0.024
83 | GAAGCTGAAT | 1.01 ± 0.0029
84 | GAAGCTGCCA | 1.031 ± 0.0067
85 | GAAGCTTGGG | 1.04 ± 0.025
86 | GAAGGAAAGA | 1.02 ± 0.037
87 | GAAGGAACCG | 1.025 ± 0.0063
88 | GAAGGAATAG | 1.66 ± 0.92
89 | GAAGGATATT | 1.018 ± 0.0039
90 | GAAGGCAGGG | 0.986 ± 0.029
91 | GAAGGCATTC | 1.06 ± 0.031
92 | GAAGGCCCTG | 1.01 ± 0.04
93 | GAAGGCCTGT | 0.9745 ± 0.0097
94 | GAAGGCTAAT | 0.974 ± 0.022
95 | GAAGGCTCCG | 1.04 ± 0.014
96 | GAAGGGATGC | 1.26 ± 0.073
97 | GAAGGGCATT | 0.9963 ± 0.0015
98 | GAAGGGCGGC | 1.01 ± 0.024
99 | GAAGGGGAAA | 1 ± 0.045
100 | GAAGGGGAAG | 0.998 ± 0.0043
